In experiment [1] the target is T1, Biotin-VS-HiBiT.
T1 construct: Synthetic peptide
T1 peptide: Biotin-VSVSGWRLFKKIS
As to the kind of experiment: BLI; biotin-peptide on streptavidin probe; PBST, 25 C. A general note: Biolayer interferometry detects binding as a change in optical thickness at a sensor tip.

The target in experiment [2] is T2, Biotin-HaloTag[3-19] (D9R + L16R)-4xGly/Ser-VS-HiBiT (N-terminal biotin).
T2 construct: Synthetic peptide; also called HaloTag[3-19](D9R + L16R)-4xGS-VSHiBiT
T2 peptide: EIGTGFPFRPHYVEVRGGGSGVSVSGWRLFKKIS
Described as above.

In experiment [3] the target is T3, Biotin-HaloTag[3-19] (I2R + G5R)-4xGly/Ser-VS-HiBiT (N-terminal biotin).
T3 construct: Synthetic peptide; also called HaloTag[3-19](I2R + G5R)-4xGS-VSHiBiT
T3 peptide: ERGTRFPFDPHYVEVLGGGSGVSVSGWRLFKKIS
The experiment is described as above.

The target of experiment [4] is T4, Biotin-HaloTag[3-19] (I2R + G3K)-4xGly/Ser-VS-HiBiT (N-terminal biotin).
T4 construct: Synthetic peptide; also called HaloTag[3-19](I2R + G3K)-4xGS-VSHiBIT
T4 peptide: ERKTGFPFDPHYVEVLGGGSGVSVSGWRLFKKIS
The experiment is described as above.

Experiment [5] concerns the target T5, Biotin-HaloTag[3-19] (D9R + E14K)-4xGly/Ser-VS-HiBiT (N-terminal biotin).
T5 construct: Synthetic peptide; also called HaloTag[3-19](D9R + E14K)-4xGS-VSHiBiT
T5 peptide: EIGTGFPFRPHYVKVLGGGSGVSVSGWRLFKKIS
The description is as above.

The target of experiment [6] is FKBP-SmHT-HiBiT. As to the kind of experiment: cell-based or functional assay.
Experiment [7] deals with T6, Biotin-HaloTag[3-19] (I2R + G17R)-4xGly/Ser-VS-HiBiT (N-terminal biotin).
T6 construct: Synthetic peptide; also called HaloTag[3-19](I2R + G17R)-4xGS-VSHiBiT
T6 peptide: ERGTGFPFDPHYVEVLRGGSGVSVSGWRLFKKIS
As to the kind of experiment: BLI; biotin-peptide on streptavidin probe; PBST, 25 C.

Experiment [8] has as its target T7, Biotin-HaloTag[3-19] (G3K + E14K)-4xGly/Ser-VS-HiBiT (N-terminal biotin).
T7 construct: Synthetic peptide; also called HaloTag[3-19](G3K + E14K)-4xGS-VSHiBiT
T7 peptide: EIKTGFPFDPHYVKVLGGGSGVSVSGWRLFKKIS
Described as above.

The target of experiment [9] is T8, Biotin-HaloTag[3-19] (G5R)-4xGly/Ser-VS-HiBiT (N-terminal biotin).
T8 construct: Synthetic peptide
T8 peptide: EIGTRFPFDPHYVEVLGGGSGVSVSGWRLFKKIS
The experiment is described as above.

In experiment [10] the target is T9, Biotin-HaloTag[3-19] (E14K)-4xGly/Ser-VS-HiBIT (N-terminal biotin).
T9 construct: Synthetic peptide
T9 peptide: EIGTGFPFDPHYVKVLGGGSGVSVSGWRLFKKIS
The description is as above.

Experiment [11] concerns the target T10, Biotin-HaloTag[3-19] (G3K + L16R)-4xGly/Ser-VS-HiBiT (N-terminal biotin).
T10 construct: Synthetic peptide; also called HaloTag[3-19](G3K + L16R)-4xGS-VSHiBiT
T10 peptide: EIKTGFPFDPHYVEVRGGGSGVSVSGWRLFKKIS
The description is as above.

Experiment [12] has as its target T11, Biotin-HaloTag[3-19] (D9R)-4xGly/Ser-VS-HiBiT (N-terminal biotin).
T11 construct: Synthetic peptide
T11 peptide: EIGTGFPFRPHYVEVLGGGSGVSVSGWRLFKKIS
The experiment is described as above.

The target in experiment [13] is T12, Biotin-HaloTag[3-19] (G3K)-4xGly/Ser-VS-HiBIT (N-terminal biotin).
T12 construct: Synthetic peptide
T12 peptide: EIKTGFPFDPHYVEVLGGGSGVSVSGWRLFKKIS
The experiment is described as above.

For experiment [14], the target named is T13, Biotin-HaloTag[3-19] (L16R)-4xGly/Ser-VS-HiBiT (N-terminal biotin).
T13 construct: Synthetic peptide
T13 peptide: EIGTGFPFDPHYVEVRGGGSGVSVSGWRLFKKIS
The description is as above.

Experiment [15] deals with T14, Biotin-HaloTag[3-19] (I2R)-4xGly/Ser-VS-HiBiT (N-terminal biotin).
T14 construct: Synthetic peptide; also called HaloTag[3-19](12R)-4×Gly/Ser-VS-HiBiT; DualTag peptide
T14 peptide: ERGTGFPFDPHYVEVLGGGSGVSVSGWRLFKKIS
Described as above.

Experiment [16] deals with T15, Biotin-HaloTag[3-19] (I2R + D9R)-4xGly/Ser-VS-HiBiT (N-terminal biotin).
T15 construct: Synthetic peptide; also called HaloTag[3-19](I2R + D9R)-4xGS-VSHiBiT
T15 peptide: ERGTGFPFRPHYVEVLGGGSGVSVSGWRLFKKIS
The experiment is described as above.

“And” between values parts separate entries of the source, which are not always exact repeats. Equal entries are not always repeated. Ends that are not written are not given here. * marks the point of attachment. Biotin = O=C1N[C@H]2[C@H](CS[C@H]2CCCCC(=O)*)N1

B1: LgBiT-6xHis (other)
chain: MVFTLEDFVGDWEQTAAYNLDQVLEQGGVSSLLQNLAVSVTPIQRIVRSGENALKIDIHVIIPYEGLSADQMAQIEEVFKVVYPVDDHHFKVILPYGTLVIDGVTPNMLNYFGRPYEGIAVFDGKKITVTGTLWNGNKIIDERLITPDGSMLFRVTINSHHHHHH
notes: also called LgBiT-6×His; LgBiT alone
The term Kd denotes the equilibrium constant for the complex coming apart. The koff is the rate constant with which the complex falls apart. As usually defined, the kon is the second-order rate constant of association. In the case of B1, the results for the Kd in [1], in experiment [3] and in [4] were 5.06 nM, 0.11 nM and 0.323 nM, respectively. Also, the values for the koff in [1], in [3] and in experiment [4] were 0.000931 s⁻¹, 5.86e-06 s⁻¹ and 2.4e-05 s⁻¹, respectively. The kon in [1] turned out to be 184000 M⁻¹ s⁻¹; in experiment [2], 64800 M⁻¹ s⁻¹; in [3], 53200 M⁻¹ s⁻¹; in experiment [4], 74500 M⁻¹ s⁻¹; in experiment [5], 83000 M⁻¹ s⁻¹.

B2: HaloTag[22-297](M2F)-12xGly/Ser-LgBiT (other)
chain: MFHYVDVGPRDGTPVLFLHGNPTSSYVWRNIIPHVAPTHRCIAPDLIGMGKSDKPDLGYFFDDHVRFMDAFIEALGLEEVVLVIHDWGSALGFHWAKRNPERVKGIAFMEFIRPIPTWDEWPEFARETFQAFRTTDVGRKLIIDQNVFIEGTLPMGVVRPLTEVEMDHYREPFLNPVDREPLWRFPNELPIAGEPANIVALVEEYMDWLHQSPVPKLLFWGTPGVLIPPAEAARLAKSLPNCKAVDIGPGLNLLQEDNPDLIGSEIARWLSTLEISGGSGGSGGGGSGGMVFTLEDFVGDWEQTAAYNLDQVLEQGGVSSLLQNLAVSVTPIQRIVRSGENALKIDIHVIIPYEGLSADQMAQIEEVFKVVYPVDDHHFKVILPYGTLVIDGVTPNMLNYFGRPYEGIAVFDGKKITVTGTLWNGNKIIDERLITPDGSMLFRVTINS
With B2, the “luminescence (FIG. 9)” value in experiment [6] is roughly 100 fold.

B3: HaloTag[22-297](Q145H+P154R)-LgBiT (other)
chain: MMHYVDVGPRDGTPVLFLHGNPTSSYVWRNIIPHVAPTHRCIAPDLIGMGKSDKPDLGYFFDDHVRFMDAFIEALGLEEVVLVIHDWGSALGFHWAKRNPERVKGIAFMEFIRPIPTWDEWPEFARETFQAFRTTDVGRKLIIDHNVFIEGTLRMGVVRPLTEVEMDHYREPFLNPVDREPLWRFPNELPIAGEPANIVALVEEYMDWLHQSPVPKLLFWGTPGVLIPPAEAARLAKSLPNCKAVDIGPGLNLLQEDNPDLIGSEIARWLSTLEISGGSGGSGGGGSGGMVFTLEDFVGDWEQTAAYNLDQVLEQGGVSSLLQNLAVSVTPIQRIVRSGENALKIDIHVIIPYEGLSADQMAQIEEVFKVVYPVDDHHFKVILPYGTLVIDGVTPNMLNYFGRPYEGIAVFDGKKITVTGTLWNGNKIIDERLITPDGSMLFRVTINSGSGHHHHHH
Take B3: in experiment [6], the “luminescence (FIG. 9)” value was roughly 100 fold.

B4: HaloTag[22-297](M2F + K140E)-12xGly/Ser-LgBiT-3xGly/Ser-6xHis (other)
chain: MFHYVDVGPRDGTPVLFLHGNPTSSYVWRNIIPHVAPTHRCIAPDLIGMGKSDKPDLGYFFDDHVRFMDAFIEALGLEEVVLVIHDWGSALGFHWAKRNPERVKGIAFMEFIRPIPTWDEWPEFARETFQAFRTTDVGRELIIDQNVFIEGTLPMGVVRPLTEVEMDHYREPFLNPVDREPLWRFPNELPIAGEPANIVALVEEYMDWLHQSPVPKLLFWGTPGVLIPPAEAARLAKSLPNCKAVDIGPGLNLLQEDNPDLIGSEIARWLSTLEISGGSGGSGGGGSGGMVFTLEDFVGDWEQTAAYNLDQVLEQGGVSSLLQNLAVSVTPIQRIVRSGENALKIDIHVIIPYEGLSADQMAQIEEVFKVVYPVDDHHFKVILPYGTLVIDGVTPNMLNYFGRPYEGIAVFDGKKITVTGTLWNGNKIIDERLITPDGSMLFRVTINSGSGHHHHHH
notes: Purified tandem polypeptide reporter variant
B4: the kon in experiment [7] was 93300 M⁻¹ s⁻¹; in experiment [8] it was 128000 M⁻¹ s⁻¹; in experiment [9] it was 85300 M⁻¹ s⁻¹; in experiment [10], 108000 M⁻¹ s⁻¹; in experiment [11], 97100 M⁻¹ s⁻¹; in experiment [2] it was 134000 M⁻¹ s⁻¹. In addition, the kon in [12] is 86600 M⁻¹ s⁻¹; in experiment [3] it was 95100 M⁻¹ s⁻¹; in [13] it was 73000 M⁻¹ s⁻¹; in experiment [14] it was 77900 M⁻¹ s⁻¹; in [15], 66700 M⁻¹ s⁻¹ and 70000 M⁻¹ s⁻¹; in experiment [16] it was 128000 M⁻¹ s⁻¹. The values for the kon in [4] and in experiment [5] were 104000 M⁻¹ s⁻¹ and 152000 M⁻¹ s⁻¹, respectively. Besides, the dissociation constant (Kd) in experiment [12] is 0.126 nM; in experiment [13], 0.264 nM; in [15], 0.684 nM and 0.466 nM; in experiment [5] it was 0.111 nM. For the same molecule, the koff is 1.09e-05 s⁻¹ in [12]; 1.93e-05 s⁻¹ in experiment [13]; 4.56e-05 s⁻¹ and 3.26e-05 s⁻¹ in experiment [15]; 1.69e-05 s⁻¹ in experiment [5].

B5: HaloTag[22-297](M2F + F148M + V177E)-12xGly/Ser-LgBiT-3xGly/Ser-6xHis (other)
chain: MFHYVDVGPRDGTPVLFLHGNPTSSYVWRNIIPHVAPTHRCIAPDLIGMGKSDKPDLGYFFDDHVRFMDAFIEALGLEEVVLVIHDWGSALGFHWAKRNPERVKGIAFMEFIRPIPTWDEWPEFARETFQAFRTTDVGRKLIIDQNVMIEGTLPMGVVRPLTEVEMDHYREPFLNPEDREPLWRFPNELPIAGEPANIVALVEEYMDWLHQSPVPKLLFWGTPGVLIPPAEAARLAKSLPNCKAVDIGPGLNLLQEDNPDLIGSEIARWLSTLEISGGSGGSGGGGSGGMVFTLEDFVGDWEQTAAYNLDQVLEQGGVSSLLQNLAVSVTPIQRIVRSGENALKIDIHVIIPYEGLSADQMAQIEEVFKVVYPVDDHHFKVILPYGTLVIDGVTPNMLNYFGRPYEGIAVFDGKKITVTGTLWNGNKIIDERLITPDGSMLFRVTINSGSGHHHHHH
notes: as for B4
As for B5, the Kd turned out to be 2.4 nM in experiment [1], 0.485 nM in experiment [9], 0.102 nM in [13] and 0.509 nM in [15]. Besides, the koff in [1] turned out to be 0.000628 s⁻¹; in [9], 2.23e-05 s⁻¹; in experiment [13] it was 5.03e-06 s⁻¹; in [15], 2.75e-05 s⁻¹. Also, the kon was found to be 261000 M⁻¹ s⁻¹ in experiment [1], 46000 M⁻¹ s⁻¹ in experiment [9], 49500 M⁻¹ s⁻¹ in experiment [13] and 54000 M⁻¹ s⁻¹ in [15].

B6: HaloTag[22-297](M2F + D53G + V177E)-12xGly/Ser-LgBiT-3xGly/Ser-6xHis (other)
chain: MFHYVDVGPRDGTPVLFLHGNPTSSYVWRNIIPHVAPTHRCIAPDLIGMGKSGKPDLGYFFDDHVRFMDAFIEALGLEEVVLVIHDWGSALGFHWAKRNPERVKGIAFMEFIRPIPTWDEWPEFARETFQAFRTTDVGRKLIIDQNVFIEGTLPMGVVRPLTEVEMDHYREPFLNPEDREPLWRFPNELPIAGEPANIVALVEEYMDWLHQSPVPKLLFWGTPGVLIPPAEAARLAKSLPNCKAVDIGPGLNLLQEDNPDLIGSEIARWLSTLEISGGSGGSGGGGSGGMVFTLEDFVGDWEQTAAYNLDQVLEQGGVSSLLQNLAVSVTPIQRIVRSGENALKIDIHVIIPYEGLSADQMAQIEEVFKVVYPVDDHHFKVILPYGTLVIDGVTPNMLNYFGRPYEGIAVFDGKKITVTGTLWNGNKIIDERLITPDGSMLFRVTINSGSGHHHHHH
notes: as for B4
In experiment [15], B6 yielded a Kd of 0.669 nM, a koff of 4.09e-05 s⁻¹ and an association rate constant (kon) of 61300 M⁻¹ s⁻¹.

The record behind these values is patent US20240368565A1 (PROMEGA, published 2024).
